Here are results for one protein from article PMC9728169, “Enzymatic Biotransformation of Ginsenoside Rb2 into Rd by Recombinant α-L-Arabinopyranosidase from Blastococcus saxobsidens” (Journal of Microbiology and Biotechnology, 2019).

Substrate in this data set: [H][C@@]1(O[C@@H]2[C@@H](O)[C@H](O)[C@@H](CO)O[C@@]2([H])O[C@H]2CC[C@]3(C)[C@@]4([H])C[C@@H](O)[C@]5([H])[C@@]([H])([C@](C)(CCC=C(C)C)O[C@@H]6O[C@H](CO[C@@H]7OC[C@H](O)[C@H](O)[C@H]7O)[C@@H](O)[C@H](O)[C@H]6O)CC[C@@]5(C)[C@]4(C)CC[C@@]3([H])C2(C)C)O[C@H](CO)[C@@H](O)[C@H](O)[C@H]1O
Nature of the data set: hydrolysis of arabinopyranose moiety of Rb2 (kinetic read-out not detailed). Particulars: enzyme 10 μg/ml; substrate range 0.1 mM to 5 mM as printed (unit μM doubtful); pH and temperature not stated for this constant; unit of the source corrected. The format is biochemical, Blastococcus saxobsidens.

B1: AbpBs (α-L-arabinopyranosidase) (Blastococcus saxobsidens) (protein)
chain: MRRIPFNRGWETRAHANFFAEMHGAAAPWQPVTLPHDAALGRTRDAANGAGSGYVPGGVYEYRTTLAAPAEYRDRRVLLEFEGVYRTAMVYVNGSLAGSWATGYTGFVVDLDDHLRYGGDNEIRVVCRAHQDSRWYSGAGIHRPVHLVVGPLTHLALDGVRVTTTEVDAEFAVVEVATTVEHDGRGLRTLELVTEVRDGEGSAVATATSPVTVLPGEPAVVRQRLLLPTPALWGPDSPSLYTAAVVLRDGGTDVDDDAVSFGVRTLSLDPERGLRINGEPIKLRGACVHSDNGVLGAATIGRAEERRVQLLKEAGFNALRSAHNPMSRAMLDACDRYGVLVMDELTDVWTESKTDFDAALDFPQWWERDVEAMVAKDVNHPSVVFYSIGNEIPEVAKPHGAVWSRRLAEKVRALDGTRFVTNGINAMLAVIGEAKAAEEQAGINTMLTDMGAFMDELSASELVATRTAEAYDVLDAAGMNYMEARYQLDRTLFPRRVIVGAETFAGKIDRLWRLVLDHPHVIGDFTWTGWDYLGEAGVGRVAAADDPTAGQFGAPYPWLLAHVGDIDITGHRRPASYYREIVFGRRRDPYIAVLRPERHGRELSATPWAWSDTVGSWSWAGAEEKPVTVEVYSDADEVELLLDGTSLGTAKAGEANRFRAAFEVTYAPGELTAVSRTGGQETGRCSLRSATGPLALAAAADRPVVRADDTDLAHVTLTLEDADGVVALGVDREVTVTVEGPGVLQGFGSAAPATEESYLDDVHTTFDGRALAVVRPTGAGTITLTATAPGCPPVSLGIEAR
notes: pGEX-4T-1 N-terminal GST fusion in E. coli BL21 (DE3), GST removed by thrombin (purified enzyme); primer-encoded N-terminus MRRIPF
A word on the Km: it is the substrate concentration at which the rate is half of its maximum. In the case of B1, the Km stood at 920 µM.
